The values that follow come from patent US20160222109A1 (DYAX, published 2016).

For test [1], the target named is T1, rat FcRn / rat β2M expressed on cells (rat, UniProt P13599 23-366; P07151 21-119).
T1 construct: also called rat FcRn (cells); rat fibroblasts expressing rat FcRn
T1 sequence: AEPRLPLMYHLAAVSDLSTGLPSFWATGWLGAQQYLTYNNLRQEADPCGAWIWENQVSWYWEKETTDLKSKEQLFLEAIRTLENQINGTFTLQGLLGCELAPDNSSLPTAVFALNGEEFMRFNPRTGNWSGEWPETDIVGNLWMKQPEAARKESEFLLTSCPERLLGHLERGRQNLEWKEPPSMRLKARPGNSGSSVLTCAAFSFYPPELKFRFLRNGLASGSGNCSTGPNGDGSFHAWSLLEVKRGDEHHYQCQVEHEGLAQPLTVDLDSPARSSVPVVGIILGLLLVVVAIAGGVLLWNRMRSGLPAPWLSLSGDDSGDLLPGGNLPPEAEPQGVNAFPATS
T1 sequence (b2m): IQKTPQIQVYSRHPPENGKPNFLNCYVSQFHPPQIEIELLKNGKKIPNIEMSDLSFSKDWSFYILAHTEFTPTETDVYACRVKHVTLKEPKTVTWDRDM
In words: FACS binding, Alexa488-mAb, pH 7.4. On the technique in general: Flow cytometry measures light scatter and fluorescence of single cells or particles in a stream.

For test [2], the target named is T2, murine FcRn / murine β2M expressed on 3T3 cells (mouse, UniProt Q61559 22-365; P01887 21-119).
T2 construct: whole, on cells; also called mouse FcRn; 3T3 FcRn cells
T2 sequence (looked up): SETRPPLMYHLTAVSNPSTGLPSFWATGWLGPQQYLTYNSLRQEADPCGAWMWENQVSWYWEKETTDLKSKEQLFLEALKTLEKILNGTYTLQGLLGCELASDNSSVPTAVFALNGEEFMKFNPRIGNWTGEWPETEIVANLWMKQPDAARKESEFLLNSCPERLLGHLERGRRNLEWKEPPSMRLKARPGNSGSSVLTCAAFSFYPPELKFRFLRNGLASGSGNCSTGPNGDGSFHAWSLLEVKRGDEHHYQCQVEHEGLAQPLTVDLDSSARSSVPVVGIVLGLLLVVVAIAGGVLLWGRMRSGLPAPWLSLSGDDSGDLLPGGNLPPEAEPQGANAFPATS
T2 sequence (b2m, looked up): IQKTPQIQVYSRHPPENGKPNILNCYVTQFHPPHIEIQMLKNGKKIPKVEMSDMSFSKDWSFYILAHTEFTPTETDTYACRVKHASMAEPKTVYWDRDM
In words: FACS binding, Alexa488-mAb, pH 7.4.

Test [3] deals with T3, soluble human FcRn (extra-cellular domain of heavy chain and β2M) (human, UniProt P55899 24-297; P61769 21-119).
T3 construct: also called shFcRn; soluble hFcRn
T3 sequence (P55899 24-297 limits assumed, chain 1 of 2): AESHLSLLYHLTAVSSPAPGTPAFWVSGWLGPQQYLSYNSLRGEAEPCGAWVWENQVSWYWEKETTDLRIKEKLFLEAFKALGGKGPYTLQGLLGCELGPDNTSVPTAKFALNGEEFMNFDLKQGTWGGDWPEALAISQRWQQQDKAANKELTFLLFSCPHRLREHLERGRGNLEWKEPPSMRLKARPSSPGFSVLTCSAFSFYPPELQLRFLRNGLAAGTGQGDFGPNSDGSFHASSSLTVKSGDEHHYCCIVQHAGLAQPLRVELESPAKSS
T3 sequence (P61769 21-119 limits assumed, chain 2 of 2): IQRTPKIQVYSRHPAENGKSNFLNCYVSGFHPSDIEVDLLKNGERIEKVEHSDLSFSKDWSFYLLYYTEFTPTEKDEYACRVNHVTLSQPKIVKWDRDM
The test can be described thus: Biacore, FcRn on chip, pH 6.0.

The target in test [4] is T4, soluble monkey FcRn (monkey (cyno), UniProt Q8SPV9 24-297; Q8SPW0 21-119).
T4 construct: also called cyno
T4 sequence (Q8SPV9 24-297, chain 1 of 2): as the sequence (P55899 24-297 limits assumed, chain 1 of 2) above, with N39D, E44Q, G99S, S189G, S190N, L217M, S269T counted along it
T4 sequence (Q8SPW0 21-119, chain 2 of 2): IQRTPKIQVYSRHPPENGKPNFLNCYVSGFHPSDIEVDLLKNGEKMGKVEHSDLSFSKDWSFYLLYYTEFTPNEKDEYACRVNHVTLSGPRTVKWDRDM
The test can be described thus: Biacore, FcRn on chip, pH 6.0. On the technique in general: In SPR one partner is held on a chip, and binding of the other changes the refractive index at the surface.

In test [5] the target is T3, soluble human FcRn (extra-cellular …). The test can be described thus: Biacore, FcRn on chip, pH 7.4.
The target of test [6] is T4, soluble monkey FcRn. The test can be described thus: Biacore, FcRn on chip, pH 7.4.
The target of test [7] is T3, soluble human FcRn (extra-cellular …). In words: Biacore, FcRn on chip, pH 7.4; pH 7.4; n = 2.

For orientation: Kd means the equilibrium constant for the complex coming apart. For orientation: koff means a measure of how fast the partners let go of each other.

B1: 3B3.11 (antibody)
heavy: VKLQESGPELVKPGASVKISCKASGYAFSRSWMNWVKQRPGQGLEWIGRIHPGDGDTNYNGKFKGKATLTVAKSSSTAYMQLSSLTSVDSAVYFCANEGSPYFDYWGQGTTLTVSSAKTTPPSVYPLAPGSAAQTNSMVTLGCLVKGYFPEPVTVTWNSGSLSSGVHTFPAVLQSDLYTLSSSVTVPSSTWPSETVTCNVAHPASSTKVDKKLE
light: DIQLTQSPTTVAASPGEKITITCSASSSISSNYLHWYQQKPGFSPKLLIYRTSNLASGVPARFSGSGSGTSYSLTIGTMEAEDVATYYCQQGSNIPLTFGAGTKLELKRADAAPTVSIFPPSSEQLTSGGASVVCFLNNFYPKDINVKWKIDGSERQNGVLNSWTDQDSKDSTYSMSSTLTLTKDEYERHNSYTCEATHKTSTSPIVKSFNKNE
notes: also called mAb 3B3.11
As for B1, the binding result in test [1] is recorded as “no binding”; in test [2] it was “binds”. In addition, the Kd in test [3] worked out at 1.17 nM; in test [4] it was 3.23 nM; in test [5], 0.16 nM; in test [6], 3.24 nM. The koff in test [3] was 0.000176 s⁻¹; in test [4], 0.000552 s⁻¹; in test [6], 0.000247 s⁻¹; in test [7], 1.45e-06 s⁻¹.
